The results in this text go back to patent US20260263609A1 (NEW YORK UNIVERSITY, published 2026).

Residue numbers refer to the chain shown, from its start.

Experiment [1] has as its target T1, NRAS (human, UniProt P01111 1-174, limits assumed).
T1 construct: also called Neuroblastoma-RAS; NRAS (WT)
Briefly: BLI; biotinylated monobody on streptavidin tip, NRAS(WT)·GDP at 50, 25, 12.5 and 6.25 nM; global 1:1 fit.

The target of another experiment is T2, NRAS (K135R) (human, UniProt P01111 1-174, limits assumed).
T2 construct: also called NRAS mutant with the H/KRAS-mimicking mutation K135R
As to the kind of experiment: BLI; sensorgrams at 100 nM and 25 nM with fit; nucleotide state not marked.

Experiment [2] concerns the target T1, NRAS. As to the kind of experiment: BLI; biotinylated monobody on streptavidin tip, NRAS(WT)·GTPγS at 50, 25, 12.5 and 6.25 nM; global 1:1 fit. A general note: In BLI a coated tip is dipped into the sample, and binding shifts an interference pattern.
Experiment [3] deals with T1, NRAS. Briefly: BLI; biotinylated monobody on streptavidin tip, NRAS at 50, 25, 12.5 and 6.25 nM; global 1:1 fit; upper right panel, untitled on this sheet, NRAS(WT)·GTPγS by the layout of FIG. 2A.
Experiment [4] concerns the target T1, NRAS. Briefly: BLI; biotinylated monobody on streptavidin tip, NRAS at 50, 25, 12.5 and 6.25 nM; global 1:1 fit; upper left panel, untitled on this sheet, NRAS(WT)·GDP by the layout of FIG. 2A.
Experiment [5] has as its target T1, NRAS. Described as above. The source holds these as a separate data set.
The target in experiment [6] is T1, NRAS. Briefly: BLI; biotinylated monobody on streptavidin tip, NRAS at 50, 25, 12.5 and 6.25 nM; global 1:1 fit; upper right panel, untitled on this sheet, NRAS(WT)·GTPγS by the layout of FIG. 2A. The source holds these as a separate data set.
In experiment [7] the target is T1, NRAS. As to the kind of experiment: yeast display, cells sorted for binding to NRAS (WT).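 Note: Yeast-displayed monobody variants with one or two residue substitutions, monobody sequences read from cells recovered by sorting for binding to wild-type NRAS.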

B1: Mb(NRAS_19) (designed binder)
chain: VSSVPTKLEVVAATPTSLLISWDAPAVTVDFYVITYGETGSYYPYAQEFKVPGSKSTATISGLSPGVDYTITVYAYQVIGAIWKYYSPISINYRT
Take B1: the Kd with NRAS [1] is 1.8 nM; in the experiment with NRAS (K135R), 6.6 nM; with NRAS [2], 0.83 nM.

B2: Mb(NRAS_24) (designed binder)
chain: B1 chain with S41G, Y43A, P44W, Y45A, A46Y
Take B2: the Kd with NRAS (K135R) amounted to 5.6 nM; with NRAS [3], 0.52 nM; with NRAS [4], 2.6 nM.

B3: Mb(NRAS_20) (designed binder)
chain: B1 chain with S41A
For B3, the results for the Kd with NRAS [5], in the experiment with NRAS [6] and with NRAS (K135R) were 3.3 nM, 1.1 nM and 9.5 nM, respectively.

B4: Mb(NRAS_24) with the FG loop of SEQ ID NO: 66 (designed binder)
chain: B1 chain with S41G, Y43A, P44W, Y45A, A46Y, V78Y, I79V
notes: length of the loop entry not visible
Take B4: the binding result with NRAS [7] is on record as “binds”.

B5: Mb(NRAS_24) with the FG loop of SEQ ID NO: 67 (designed binder)
chain: B1 chain with S41G, Y43A, P44W, Y45A, A46Y, V78Y, I79Y
notes: as for B4
On to B5, for which, in the experiment with NRAS [7], the binding result was “binds”.

B6: Mb(NRAS_24) with the FG loop of SEQ ID NO: 65 (designed binder)
chain: B1 chain with S41G, Y43A, P44W, Y45A, A46Y, V78Y, I79H
notes: as for B4
For B6, in the experiment with NRAS [7], the binding result is “binds”.

As a reminder, the Kd is the constant that tells how readily two partners part at equilibrium. Lower therefore signals a tighter complex.
